Test results from patent US20200190192A1 (SUTRO BIOPHARMA, published 2020).
Positions count from the first letter of the chain named. Names may count otherwise.

T1: cynomolgus Tim-3 expressed on CHO cells (cynomolgus monkey)
T1 construct: also called cTim-3; Cyno Tim-3 (CHO)
T1 chain: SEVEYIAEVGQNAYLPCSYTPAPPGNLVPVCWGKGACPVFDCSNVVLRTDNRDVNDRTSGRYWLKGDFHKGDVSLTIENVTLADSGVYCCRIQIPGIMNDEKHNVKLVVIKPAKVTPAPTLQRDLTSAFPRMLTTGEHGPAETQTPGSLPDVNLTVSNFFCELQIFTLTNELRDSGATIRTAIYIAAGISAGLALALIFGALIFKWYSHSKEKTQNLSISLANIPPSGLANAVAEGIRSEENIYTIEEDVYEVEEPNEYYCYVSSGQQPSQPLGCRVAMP

B1: h22E11-VK2-28 × h22E11-VH1-69 (antibody, V domains shown)
VH: QVQLVQSGAEVKKPGSSVKVSCKVSGFSLTSYGVHWVRQAPGQGLEWLVVIWSDGSTTYNQKFQGRVTITKDESTSTVYMELSSLRSEDTAVYYCARQGGYRYDDAMDYWGQGTLVTVSS
VL: DIVLTQSPLSLPVTPGEPASISCKASQSVDYDGNSYVNWYLQKPGQSPQLLIYAASNLESGVPDRFSGSGSGTDFTLKISRVEAEDVGVYYCQQSNEDPYTFGQGTKVEIK
notes: Humanized m22E11
B2: h22E11-VK4-1 × h22E11-VH1-69 (antibody, V domains shown)
VH: B1 VH
VL: DIVLTQSPDSLAVSLGERATINCKASQSVDYDGNSYVNWYQQKPGQPPKLLIYAASNLESGVPDRFSGSGSGTDFTLTISSLQAEDVAVYYCQQSNEDPYTFGQGTKVEIK
notes: Humanized m22E11
B3: h22E11-VK2-28 × h22E11-VH3-23 (antibody, V domains shown)
VH: EVQLLESGGGLVQPGGSLRLSCAVSGFSLTSYGVHWVRQAPGKGLEWLVVIWSDGSTTYNDSVKGRFTISKDNSKNTVYLQMNSLRAEDTAVYYCARQGGYRYDDAMDYWGQGTLVTVSS
VL: B1 VL
notes: Humanized m22E11
B4: h22E11-VK2-28 × h22E11-VH5-51 (antibody, V domains shown)
VH: EVQLVQSGAEVKKPGESLKISCKVSGFSLTSYGVHWVRQMPGKGLEWLVVIWSDGSTTYNPSFQGQVTISKDKSISTVYLQWSSLKASDTAMYYCARQGGYRYDDAMDYWGQGTLVTVSS
VL: B1 VL
notes: Humanized m22E11
B5: h22E11-VK2-28 × h22E11-VH4-30-4 (antibody, V domains shown)
VH: QVQLQESGPGLVKPSQTLSLTCTVSGFSLTSYGVHWIRQPPGKGLEWLVVIWSDGSTTYNPSLKSRVTISKDTSKNQVSLKLSSVTAADTAVYYCARQGGYRYDDAMDYWGQGTLVTVSS
VL: B1 VL
notes: Humanized m22E11
B6: h22E11-VK2-28 × h22E11-5-IgG-HC (antibody, V domains shown)
VH: B3 VH with L5V, D61S, S62A, V63L, G65S, S74A, T77S
VL: B1 VL
notes: Humanized m22E11
B7: SRP1649-B06 (antibody, V domains shown)
VH: EVQLVESGGGLVQPGGSLRLSCAASGFNISNHAIHWVRQAPGKGLEWVADISPAVGYTDYADSVKDRFTISADTSKNTAYLQMNSLRAEDTAVYYCARGYVYRMWDSFDHWGQGTLVTVSS
VL: not shown
notes: IgG with trastuzumab LC; HIS- and FLAG-tagged
B8: SRP1649-G08 (antibody, V domains shown)
VH: EVQLVESGGGLVQPGGSLRLSCAASGFNISNYVIHWVRQAPGKGLEWVAAITPDGGITEYADSVKGRFAISADTSKNTAYLQMNSLRAEDTAVYYCARGYVYRMWDSYDYWGQGTLVTVSS
VL: not shown
notes: as for B7
B9: SRP1649-C05 (antibody, V domains shown)
VH: B7 VH with S30G, N31K, A33V, S52V, A54N, V55G, D59E, H110Y
VL: not shown
notes: as for B7
B10: SRP1649-B09 (antibody, V domains shown)
VH: B7 VH with S30R, H32N, S52T, V55G, D59G, V101I, F108L, H110Y
VL: not shown
notes: as for B7
B11: SRP1649-D06 (antibody, V domains shown)
VH: B7 VH with S30R, S52A, V55G, F108Y, H110Y
VL: not shown
notes: as for B7
B12: SRP1649-H02 (antibody, V domains shown)
VH: B8 VH with S30R, N31S, V33A, A50D, D54A, I57D, A69T, V101I
VL: not shown
notes: as for B7
B13: SRP1649-D11 (antibody, V domains shown)
VH: B8 VH with N31G, A50D, T52I, D54T, G55A, I57Y, A69T, Y108F
VL: not shown
notes: as for B7
B14: SRP1649-E08 (antibody, V domains shown)
VH: EVQLVESGGSLVQPGGSLRLSCAASGFSISNYVIHWVRQAPGKGLEWVADISPDGGFTDYADSVKDRFTISADTSKNTAYLQMNSLRAEDTAVYYCARGHVYRLWDSFDYWGRGTLVTVSS
VL: not shown
notes: as for B7
B15: SRP1649-E10 (antibody, V domains shown)
VH: B7 VH with H32N, A33V, A49G, S52M, A54G, V55G, Y57S, F108Y, H110Y
VL: not shown
notes: as for B7
B16: 1353-G10 scFvFc-zwB × 1649-A01 Fab-zwA (parent) (bispecific antibody)
scFv: not shown
VH: B8 VH with N31R, V33Y, A50G, D54V, G55R, I57Y, G66D, A69T
VL: not shown
notes: Tim-3 heavy chain carries zwA (T350V/L351Y/F405A/Y407V) in CH3
B17: 1353-G10 scFvFc-zwB × 1649-A01 Hc zwA Y56D/TrstmbLC S56D (bispecific antibody)
scFv: not shown
VH: B8 VH with N31R, V33Y, A50G, D54V, G55R, I57D, G66D, A69T
VL: not shown
notes: Tim-3 heavy chain with zwA CH3 mutations
B18: 1353-G10 wt IgG (antibody, V domains shown)
VH: EVQLVQSGAEVKKPGASVKVSCKASGYRFPHYGISWVRQAPGQGLEWMGWISAYNGNTNYAQKLQGRVTMTTDTSTNTAYMELRSLRSDDTAVYYCARDVDYGTGSGYWGQGTLVTVSS
VL: SYELTQPPSVSVSPGQTARITCSGDALPKQYAYWYQQKPGQAPVMVIYKDTERPSGIPERFSGSSSGTKVTLTISGVQAEDEADYYCQSADNSITYRVFGGGTKVTVL
notes: IgG; also called Sample I
B19: 1353-G10 vk1-39 LC IgG (antibody, V domains shown)
VH: B18 VH
VL: DIQLTQSPSSLSASVGDRVTITCSGDALPKQYAYWYQQKPGKAPKLLIYKDTERPSGVPSRFSGSSSGTKVTLTISSLQPEDFATYYCQSADNSITYRVFGGGTKVEIK
notes: IgG; also called Sample K
B20: 1353-G10 H1 HC IgG (antibody, V domains shown)
VH: B18 VH with R28T, P30D, H31S
VL: B18 VL
notes: IgG; also called Sample J
B21: 1353-G10 H1/vk1-39 IgG (antibody, V domains shown)
VH: B18 VH with R28T, P30D, H31S
VL: B19 VL
notes: IgG; also called Sample L

Target: T1, cynomolgus Tim-3 expressed on CHO cells
Assay: flow cytometry, CHO-cyno Tim-3 cells

Row | Kd [nM] | Binder
1 | 1.7 | B1
2 | 2.5 | B2
3 | 5.4 | B3
4 | 2.3 | B4
5 | 4.3 | B5
6 | 4.1 | B6

target: T2, human Tim-3 expressed on the cell surface (human, UniProt Q8TDQ0 22-301); assay: flow cytometry, CHO-human Tim-3 cells
T2 construct: also called hTim-3; Human Tim-3 (CHO)

Row | Kd [nM] | Binder
7 | 0.2 | B7
8 | 0.2 | B8
9 | 0.2 | B9
10 | 0.2 | B10
11 | 0.1 | B11
12 | 0.2 | B12
13 | 0.1 | B13
14 | 0.2 | B14
15 | 0.2 | B15

Target: T1, cynomolgus Tim-3 expressed on CHO cells
Assay: flow cytometry, CHO-cyno Tim-3 cells
Remark: another data set of the same source

Row | Kd [nM] | Binder
16 | 1.9 | B7
17 | 9.3 | B8
18 | 0.8 | B9
19 | 9.4 | B10
20 | 1 | B11
21 | 2.2 | B12
22 | 2.2 | B13
23 | 12.4 | B14
24 | 7.4 | B15

target: T3, human PD-1 expressed on CHO cells (human, UniProt Q15116 25-288); assay: flow cytometry, CHO-human PD-1 cells; set-up: Bmax: unit not given here
T3 construct: also called hPD-1; CHO-hPD-1

Row | Bmax | Kd [nM] | Binder
25 | 13300 | 1.4 | B16
26 | 13300 | 2.3 | B17

target: T4, recombinant human Tim-3-Fc (R&D Systems, 2365-TM) (human, UniProt Q8TDQ0 22-202, biotinylated in the Galectin-9 competition ELISA (sites not given)); assay: SPR Biacore, human Tim-3 Fc;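 also: antibodies captured on an anti-FLAG sensor surface, Tim-3-Fc flowed over as analyte at 25 °C in HBS-EP+ buffer, rates fit with a 1:1 Langmuir model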
T4 construct: Bought protein; also called huTim-3-Fc; biotinylated Tim-3-Fc; not shown: Fc of the bought fusion protein

Row | koff [s⁻¹] | Binder
27 | 0.000863 | B1
28 | 0.000863 | B2
29 | 0.000911 | B3
30 | 0.000903 | B4
31 | 0.00109 | B5
32 | 0.00101 | B6

target: T2, human Tim-3 expressed on the cell …; assay: flow cytometry, activated human CD4+ T cells

Row | Kd [nM] | Binder
33 | 2.3 | B1
34 | 6.3 | B2
35 | 1.7 | B3
36 | 0.7 | B4
37 | 9.2 | B5
38 | 3.3 | B6

target: T3, human PD-1 expressed on CHO cells; assay: hPD-1 binding titration (format not named; taken as cell binding)

Row | Bmax | Kd [nM] | Binder
39 | 2980 | 0.1 | B18
40 | 3630 | 0.8 | B19
41 | 3410 | 0.5 | B20
42 | 4940 | 12.9 | B21

target: T2, human Tim-3 expressed on the cell …; assay: flow cytometry, CHO-human Tim-3 cells; remark: another data set of the same source

Row | Kd [nM] | Binder
43 | 0.7 | B1
44 | 1 | B2
45 | 0.8 | B3
46 | 0.6 | B4
47 | 0.8 | B5
48 | 0.8 | B6

target: T4, recombinant human Tim-3-Fc (R&D …); assay: SPR Biacore, human Tim-3 Fc; KD estimated

Row | Kd [nM] | Binder
49 | 5.4 | B1
50 | 5.5 | B2
51 | 5.9 | B3
52 | 4.8 | B4
53 | 7.9 | B5
54 | 6.7 | B6

target: T5, human Tim-3 (Biacore analyte; TIM-3-Fc or TIM-3-HIS, not said which) (human, UniProt Q8TDQ0 22-202); assay: SPR Biacore, human Tim-3 (Fc or HIS not said)
T5 construct: also called TIM-3 antigen; not shown: Fc or HIS tag

Row | Kd [nM] | koff [s⁻¹] | kon [M⁻¹ s⁻¹] | Binder
55 | 66.9 | 0.0126 | 189000 | B7
56 | 12.8 | 0.00243 | 191000 | B8
57 | 13.7 | 0.00166 | 121000 | B9
58 | 18.8 | 0.00249 | 133000 | B10
59 | 74.6 | 0.0205 | 275000 | B11
60 | 23.9 | 0.00374 | 157000 | B12
61 | 10.6 | 0.00159 | 150000 | B13
62 | 13.5 | 0.00182 | 135000 | B14
63 | 49.7 | 0.014 | 281000 | B15

target: PD-1 (SPR analyte of the PD-1 kinetics) (Homo sapiens (Human), UniProt Q15116 25-167, limits assumed); assay: SPR, PD-1 kinetics

Row | Kd [nM] | koff [s⁻¹] | kon [M⁻¹ s⁻¹] | Binder
64 | 0.96 | 0.00059 | 620000 | B18
65 | 0.85 | 0.00049 | 580000 | B19
66 | 2.3 | 0.0026 | 1.1e+06 | B20

target: T5, human Tim-3 (Biacore analyte; TIM-3-Fc …); assay: SPR, Tim-3 analyte

Row | Kd [nM] | Binder
67 | 12 | B16

target: T6, biotinylated recombinant human PD-1 (AcroBiosystems) (human, UniProt Q15116 25-167, limits assumed, biotinylated (sites not given)); assay: competition, flow cytometry: biotin-PD-1 binding to CHO-human PD-L1 cells
T6 construct: Bought protein; also called biotinylated PD-1

Row | IC50 [nM] | Binder
68 | 191 | B16
69 | 82 | B17

target: T2, human Tim-3 expressed on the cell …; assay: flow cytometry, CHO-human Tim-3 cells; set-up: Bmax: unit not given here; remark: another data set of the same source

Row | Bmax | Kd [nM] | Binder
70 | 14700 | 3.9 | B16
71 | 11200 | 4.5 | B17
